Measured values reported in patent US20080044360A1 (COLLAGEN MEDICAL, published 2008).
Bridge positions count the residues as written; N and C are the ends. Square brackets hold non-standard residues; d marks the D form. Ends that are not written are not given here. NMeA = CN[C@@H](C)C(=O)O; Sar = CNCC(=O)O

Experiments:
[1] = molecular target: T1, human collagen type I, acid soluble, extracted from placenta (Sigma C7774) (human, UniProt P02452 162-1218; P08123 80-1119); assay: dried collagen assay
T1 construct: tissue extract, gelled and dried in wells; also called dried human collagen; h-Collagen
T1 sequence (P02452 162-1218 limits assumed, chain 1 of 2): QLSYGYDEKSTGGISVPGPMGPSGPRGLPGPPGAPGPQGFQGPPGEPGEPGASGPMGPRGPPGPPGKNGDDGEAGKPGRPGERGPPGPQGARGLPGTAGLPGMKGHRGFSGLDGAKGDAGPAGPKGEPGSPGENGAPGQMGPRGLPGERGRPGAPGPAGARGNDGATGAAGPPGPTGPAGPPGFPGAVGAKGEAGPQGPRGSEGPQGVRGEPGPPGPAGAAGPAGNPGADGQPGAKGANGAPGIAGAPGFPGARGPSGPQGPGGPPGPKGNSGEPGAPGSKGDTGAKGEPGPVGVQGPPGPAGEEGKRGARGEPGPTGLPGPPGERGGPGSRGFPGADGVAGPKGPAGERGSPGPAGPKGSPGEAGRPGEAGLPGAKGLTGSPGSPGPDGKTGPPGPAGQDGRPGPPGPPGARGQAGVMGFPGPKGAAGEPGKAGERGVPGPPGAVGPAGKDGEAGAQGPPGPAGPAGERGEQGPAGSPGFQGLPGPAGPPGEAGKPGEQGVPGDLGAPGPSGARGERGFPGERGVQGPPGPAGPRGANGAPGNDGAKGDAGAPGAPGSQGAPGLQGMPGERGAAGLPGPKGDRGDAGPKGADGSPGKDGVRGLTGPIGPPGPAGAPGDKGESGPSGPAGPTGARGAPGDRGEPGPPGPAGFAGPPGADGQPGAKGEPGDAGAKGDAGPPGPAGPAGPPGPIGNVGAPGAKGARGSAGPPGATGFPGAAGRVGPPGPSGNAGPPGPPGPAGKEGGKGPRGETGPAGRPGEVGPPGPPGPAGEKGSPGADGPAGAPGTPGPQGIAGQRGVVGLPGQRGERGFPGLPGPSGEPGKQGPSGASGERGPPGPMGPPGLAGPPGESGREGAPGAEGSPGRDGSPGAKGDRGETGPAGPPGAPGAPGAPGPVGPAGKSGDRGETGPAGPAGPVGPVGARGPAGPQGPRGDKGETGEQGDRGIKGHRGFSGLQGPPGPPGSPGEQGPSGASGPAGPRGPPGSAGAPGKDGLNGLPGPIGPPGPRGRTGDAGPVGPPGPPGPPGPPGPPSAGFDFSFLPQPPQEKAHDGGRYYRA
T1 sequence (P08123 80-1119 limits assumed, chain 2 of 2): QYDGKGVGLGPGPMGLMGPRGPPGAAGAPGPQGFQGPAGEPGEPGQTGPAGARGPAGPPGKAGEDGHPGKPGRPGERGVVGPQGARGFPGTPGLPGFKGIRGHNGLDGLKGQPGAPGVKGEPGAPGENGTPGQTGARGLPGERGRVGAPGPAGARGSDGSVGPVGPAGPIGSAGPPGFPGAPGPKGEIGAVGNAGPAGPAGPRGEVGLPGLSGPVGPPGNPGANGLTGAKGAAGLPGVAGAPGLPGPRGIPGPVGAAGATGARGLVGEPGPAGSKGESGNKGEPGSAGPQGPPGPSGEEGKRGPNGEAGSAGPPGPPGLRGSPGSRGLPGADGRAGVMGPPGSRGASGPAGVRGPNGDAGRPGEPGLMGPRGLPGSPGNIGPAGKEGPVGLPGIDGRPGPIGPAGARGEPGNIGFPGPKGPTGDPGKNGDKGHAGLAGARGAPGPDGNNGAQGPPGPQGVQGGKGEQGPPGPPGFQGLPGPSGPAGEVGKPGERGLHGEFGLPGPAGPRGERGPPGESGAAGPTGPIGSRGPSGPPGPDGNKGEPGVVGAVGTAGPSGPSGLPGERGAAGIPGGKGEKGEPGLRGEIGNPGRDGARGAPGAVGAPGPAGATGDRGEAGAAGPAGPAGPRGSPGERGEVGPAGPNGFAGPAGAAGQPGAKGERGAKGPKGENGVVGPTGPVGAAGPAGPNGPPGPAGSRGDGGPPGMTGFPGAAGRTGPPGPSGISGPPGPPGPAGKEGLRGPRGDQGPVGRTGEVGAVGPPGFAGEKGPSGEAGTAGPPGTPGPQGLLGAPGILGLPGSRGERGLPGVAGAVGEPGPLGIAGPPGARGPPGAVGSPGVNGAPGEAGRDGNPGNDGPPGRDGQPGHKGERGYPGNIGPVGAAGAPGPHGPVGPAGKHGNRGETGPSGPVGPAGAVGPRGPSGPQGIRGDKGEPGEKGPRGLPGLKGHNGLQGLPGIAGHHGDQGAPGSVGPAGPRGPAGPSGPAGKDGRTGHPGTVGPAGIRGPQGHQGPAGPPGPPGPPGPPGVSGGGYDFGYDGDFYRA
Procedure: (§1) An additional 90 μL is reserved in a HPLC glass vial as a measure of the total concentration.

[2] = molecular target: T2, rat collagen, acid soluble, type I, rat tail (Upstate 08-115) (rat, UniProt P02454 152-1207; P02466 86-1125); assay: dried collagen assay
T2 construct: tissue extract, gelled and dried in wells; also called dried rat collagen
T2 sequence (P02454 152-1207, chain 1 of 2): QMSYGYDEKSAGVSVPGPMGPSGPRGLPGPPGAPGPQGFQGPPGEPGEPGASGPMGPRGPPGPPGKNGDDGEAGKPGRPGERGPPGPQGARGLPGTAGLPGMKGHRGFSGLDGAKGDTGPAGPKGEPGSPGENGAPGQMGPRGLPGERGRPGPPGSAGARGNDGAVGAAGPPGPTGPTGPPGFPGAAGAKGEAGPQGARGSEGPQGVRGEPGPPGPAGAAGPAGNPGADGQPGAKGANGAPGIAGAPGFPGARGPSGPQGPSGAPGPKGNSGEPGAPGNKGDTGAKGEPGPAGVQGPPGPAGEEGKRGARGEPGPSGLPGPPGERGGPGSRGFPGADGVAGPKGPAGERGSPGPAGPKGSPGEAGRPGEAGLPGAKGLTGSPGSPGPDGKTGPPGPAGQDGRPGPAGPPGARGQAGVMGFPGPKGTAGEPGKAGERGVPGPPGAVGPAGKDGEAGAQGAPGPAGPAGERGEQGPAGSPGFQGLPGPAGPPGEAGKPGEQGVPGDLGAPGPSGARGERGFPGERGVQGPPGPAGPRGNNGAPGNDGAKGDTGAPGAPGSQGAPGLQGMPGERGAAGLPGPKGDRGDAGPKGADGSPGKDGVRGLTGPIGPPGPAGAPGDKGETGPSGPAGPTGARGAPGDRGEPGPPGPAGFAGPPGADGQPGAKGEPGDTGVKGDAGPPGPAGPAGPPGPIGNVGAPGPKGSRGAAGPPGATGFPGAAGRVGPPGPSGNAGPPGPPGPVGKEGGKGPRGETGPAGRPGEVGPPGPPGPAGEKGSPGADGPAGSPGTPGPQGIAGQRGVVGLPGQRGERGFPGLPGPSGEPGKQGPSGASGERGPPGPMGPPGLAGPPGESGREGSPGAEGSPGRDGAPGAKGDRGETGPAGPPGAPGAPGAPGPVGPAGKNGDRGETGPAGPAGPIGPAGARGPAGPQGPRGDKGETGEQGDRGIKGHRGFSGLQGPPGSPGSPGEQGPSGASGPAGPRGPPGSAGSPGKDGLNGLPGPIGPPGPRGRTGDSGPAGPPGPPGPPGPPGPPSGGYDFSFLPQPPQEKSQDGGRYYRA
T2 sequence (P02466 86-1125, chain 2 of 2): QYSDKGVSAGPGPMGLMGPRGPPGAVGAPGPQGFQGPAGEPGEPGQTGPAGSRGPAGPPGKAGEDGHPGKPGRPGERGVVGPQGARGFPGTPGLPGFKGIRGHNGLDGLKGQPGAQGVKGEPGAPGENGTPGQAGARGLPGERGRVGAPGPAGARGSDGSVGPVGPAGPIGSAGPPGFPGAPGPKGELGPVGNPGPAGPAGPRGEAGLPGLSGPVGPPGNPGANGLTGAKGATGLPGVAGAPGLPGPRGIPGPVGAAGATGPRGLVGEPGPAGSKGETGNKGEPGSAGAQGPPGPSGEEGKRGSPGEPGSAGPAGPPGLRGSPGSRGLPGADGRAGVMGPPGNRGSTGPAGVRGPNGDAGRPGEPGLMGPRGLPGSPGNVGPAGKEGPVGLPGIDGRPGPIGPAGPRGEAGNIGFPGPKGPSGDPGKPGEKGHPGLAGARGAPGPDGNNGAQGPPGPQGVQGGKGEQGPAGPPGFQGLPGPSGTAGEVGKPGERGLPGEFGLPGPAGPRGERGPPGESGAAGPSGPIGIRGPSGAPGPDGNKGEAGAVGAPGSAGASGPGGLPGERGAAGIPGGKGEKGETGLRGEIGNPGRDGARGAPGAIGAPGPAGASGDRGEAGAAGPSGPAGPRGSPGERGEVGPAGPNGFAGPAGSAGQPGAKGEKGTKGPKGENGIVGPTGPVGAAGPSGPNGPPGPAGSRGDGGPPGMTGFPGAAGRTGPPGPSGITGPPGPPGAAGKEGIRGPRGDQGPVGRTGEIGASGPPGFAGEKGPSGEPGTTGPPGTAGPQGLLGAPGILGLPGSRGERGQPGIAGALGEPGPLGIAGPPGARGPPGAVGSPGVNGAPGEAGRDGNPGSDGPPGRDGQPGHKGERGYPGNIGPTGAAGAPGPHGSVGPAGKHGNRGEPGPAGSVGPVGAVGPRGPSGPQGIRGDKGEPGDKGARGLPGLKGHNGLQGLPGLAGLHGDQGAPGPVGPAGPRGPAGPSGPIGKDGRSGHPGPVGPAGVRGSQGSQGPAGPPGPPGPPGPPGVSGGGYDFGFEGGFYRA
Procedure: as §1

| Binder | % bound [1] | % bound [2] |
| --- | --- | --- |
| FWTCMRDQVGEWHCGTE (disulfide 4-14 (inferred), cyclic, disulfide) [SEQ ID NO 88] | 1% | – |
| NWYCSQALDNWSCKLR (disulfide 4-13 (inferred), cyclic, disulfide) [SEQ ID NO 63] | 8% | – |
| YHASYQAGSWIW (printed without cysteines (S for C)) [SEQ ID NO 111] | 0% | 24% |
| HWTCDQAKGGAWSCSST (disulfide 4-14 (inferred), cyclic, disulfide) [SEQ ID NO 87] | 1% | – |
| TWACGWTTTGWDNCRWI (disulfide 4-14 (inferred), cyclic, disulfide) [SEQ ID NO 90] | 34% | – |
| TWACGWTTAGWDNCRWI (disulfide 4-14 (inferred), cyclic, disulfide) [SEQ ID NO 91] | 28% | – |
| TWMCVDPPLWRCWVQ (disulfide 4-12 (inferred), cyclic, disulfide) [SEQ ID NO 4] | 45% | – |
| TWACGWTTTGWDNCRWI (disulfide 4-14 (inferred), cyclic, disulfide) [SEQ ID NO 92] | 34% | – |
| QWTCSGDEYTW[dH]CNYE (disulfide 4-13 (inferred); not fully specified (N-terminus); printed as QWTCSGDEYTWhCNYE, cyclic, disulfide) [SEQ ID NO 174] | – | 0% |
| YHACYQA[Sar]CWIW (disulfide 4-9 (inferred), cyclic, disulfide) [SEQ ID NO 104] | 12% | 19% |
| YHACYQAGCWIY (disulfide 4-9 (inferred), cyclic, disulfide) [SEQ ID NO 106] | 9% | 24% |
| YSACYQAGCYIY (disulfide 4-9 (inferred), cyclic, disulfide) [SEQ ID NO 110] | 10% | 2% |
| YHACYQAGCYIY (disulfide 4-9 (inferred), cyclic, disulfide) [SEQ ID NO 108] | – | 12% |
| YHACYQAGCAIW (disulfide 4-9 (inferred), cyclic, disulfide) [SEQ ID NO 136] | 2% | 2% |
| YAACYQAGCWIW (disulfide 4-9 (inferred), cyclic, disulfide) [SEQ ID NO 132] | 53% | 37% |
| FWRCALLDGHWQCTDH (disulfide 4-13 (inferred), cyclic, disulfide) [SEQ ID NO 70] | 3% | – |
| SWHCALMGSRWVCGQN (disulfide 4-13 (inferred), cyclic, disulfide) [SEQ ID NO 71] | 3% | – |
| ERNCVLNDFRWTCGGD (disulfide 4-13 (inferred), cyclic, disulfide) [SEQ ID NO 75] | 10% | – |
| YHACYQAG[dC]WIW (disulfide 4-9 (inferred); not fully specified (C-terminus); printed as YHACYQAGcWIW, cyclic, disulfide) [SEQ ID NO 159] | – | 27% |
| SWYCDWDDRKGWMCGSD (disulfide 4-14 (inferred), cyclic, disulfide) [SEQ ID NO 86] | 2% | – |
| YHACYQ[NMeA]GCWIW (disulfide 4-9 (inferred), cyclic, disulfide; also called YHACYQA'GCWIW) [SEQ ID NO 105] | 9% | 23% |
| TWICSHNDKGWTCGDQ (disulfide 4-13 (inferred), cyclic, disulfide) [SEQ ID NO 64] | 8% | – |
| FGACDIFPTFHTCPGV (disulfide 4-13 (inferred), cyclic, disulfide) [SEQ ID NO 76] | 1% | – |

| Binder | % bound [1] | % bound [2] |
| --- | --- | --- |
| WTCSGDEYTWHCNYE (disulfide 3-12 (inferred), cyclic, disulfide) [SEQ ID NO 114] | 19% | 14% |
| KWHCELDSHMEWSCSGH (disulfide 4-14 (inferred), cyclic, disulfide) [SEQ ID NO 89] | 1% | – |
| GQWTCSGDEYTWHCNYE (disulfide 5-14 (inferred), cyclic, disulfide) [SEQ ID NO 122] | 71% | 71% |
| DWTCSGDPYTWHCNYE (disulfide 4-13 (inferred), cyclic, disulfide) [SEQ ID NO 115] | 39% | 23% |
| DWTCSGDEFTWHCNYE (disulfide 4-13 (inferred), cyclic, disulfide) [SEQ ID NO 119] | 55% | 55% |
| PWTCSGDEYAWHCNY[dE] (disulfide 4-13 (inferred), cyclic, disulfide) [SEQ ID NO 121] | 57% | 72% |
| GQWTCSGDEYAWHCNY[dE] (disulfide 5-14 (inferred), cyclic, disulfide) [SEQ ID NO 126] | 68% | 73% |
| DWTCSGDEYAWHCNY[dE] (disulfide 4-13 (inferred), cyclic, disulfide) [SEQ ID NO 120] | 38% | 28% |
| GQWTCSGDEYTAHCNYE (disulfide 5-14 (inferred); not fully specified (C-terminus), cyclic, disulfide) [SEQ ID NO 147] | – | 1% |
| GQATCSGDEYTWHCNYE (disulfide 5-14 (inferred), cyclic, disulfide) [SEQ ID NO 139] | 1% | 0% |
| GQWTCSGDEYTWSCNYE (disulfide 5-14 (inferred), cyclic, disulfide) [SEQ ID NO 127] | 80% | 73% |
| YSACYQAGCWIW (disulfide 4-9 (inferred), cyclic, disulfide) [SEQ ID NO 109] | 21% | 37% |
| YHACYQAGCWIA (disulfide 4-9 (inferred), cyclic, disulfide) [SEQ ID NO 138] | 2% | 1% |
| YHACYQAACWIW (disulfide 4-9 (inferred), cyclic, disulfide) [SEQ ID NO 135] | 72% | 88% |
| AHACYQAGCWIW (disulfide 4-9 (inferred), cyclic, disulfide) [SEQ ID NO 131] | 7% | 12% |
| YHACYAAGCWIW (disulfide 4-9 (inferred), cyclic, disulfide) [SEQ ID NO 134] | 14% | 1% |
| TWACDLDEYGGWQCYTG (disulfide 4-14 (inferred), cyclic, disulfide) [SEQ ID NO 78] | 8% | – |
| QWT[dC]SGDEYTWHCNYE (disulfide 4-13 (inferred); not fully specified (N-terminus, C-terminus); printed as QWTcSGDEYTWHCNYE, cyclic, disulfide) [SEQ ID NO 167] | – | 0% |
| EWHCVFIQGDWLCNSG (disulfide 4-13 (inferred), cyclic, disulfide) [SEQ ID NO 72] | 1% | – |
| GWQCQGTDSLDWKCLYM (disulfide 4-14 (inferred), cyclic, disulfide) [SEQ ID NO 77] | 12% | – |
| HWQCGEKMSFWSCELV (disulfide 4-13 (inferred), cyclic, disulfide) [SEQ ID NO 69] | 3% | – |
| SWHCALVENSWQCSEA (disulfide 4-13 (inferred), cyclic, disulfide) [SEQ ID NO 73] | 1% | – |
| FWTCELDFRQSWYCYDK (disulfide 4-14 (inferred), cyclic, disulfide) [SEQ ID NO 79] | 8% | – |
